The labels stand for the following.
B1: ADC-L1-19-10 (antibody, human IgG1, kappa, V domains shown)
VH: QVQLRESGPGLVKPSETLSLTCTVSGFDISSYYMSWVRQPPGKGLEWIGAIGISGNAYYASWAKSRVTISRDTSKNQFSLKLSSVTAADTAVYYCARDHPTYGMDLWGPGTLVTVSS
VL: SYELTQPPSVSVAPGKTARITCEGNNIGSKAVHWYQQKPGQAPVLVIYDDDERPSGIPERFSGSNSGNTATLTISRVEAGDEADYYCQVWDSSAYVFGGGTKLTVLR
modifications: drug-linker L1-19 on cysteine thiols after TCEP reduction; positions not given; DAR 7.2 for the whole conjugate
notes: Antibody-drug conjugate
B2: ADC-L1-0-10 (antibody, human IgG1, kappa, V domains shown)
VH: B1 VH
VL: B1 VL
modifications: drug-linker L1-0 on cysteine thiols after TCEP reduction; positions not given; DAR 7.5 for the whole conjugate
B3: ROR1-Ab-3 (antibody, human IgG1, kappa, V domains shown)
VH: B1 VH
VL: B1 VL
notes: also called anti-human ROR1 monoclonal antibody ROR1-Ab-3
B4: ADC-L1-19-P1-10 (antibody, human IgG1, kappa, V domains shown)
VH: B1 VH
VL: B1 VL
modifications: drug-linker L1-19-P1 on cysteine thiols after TCEP reduction; positions not given; DAR 8.0 for the whole conjugate
notes: Antibody-drug conjugate
B5: ADC-L1-19-8 (antibody, human IgG1, kappa, V domains shown)
VH: QVQLQESGPGLVKPSQTLSLTCTVSGYAFTAYNIHWVRQAPGQGLEWMGSFDPYDGGSSYNQKFKDRLTISKDTSKNQVVLTMTNMDPVDTATYYCARGWYYFDYWGHGTLVTVSS
VL: DIVMTQTPLSLPVTPGEPASISCRASKSISKYLAWYQQKPGQAPRLLIYSGSTLQSGIPPRFSGSGYGTDFTLTINNIESEDAAYYFCQQHDESPYTFGEGTKVEIKR
modifications: drug-linker L1-19 on cysteine thiols after TCEP reduction; positions not given; DAR 7.1 for the whole conjugate
notes: Antibody-drug conjugate
B6: ADC-L1-0-8 (antibody, human IgG1, kappa, V domains shown)
VH: B5 VH
VL: B5 VL
modifications: drug-linker L1-0 on cysteine thiols after TCEP reduction; positions not given; DAR 6.6 for the whole conjugate
B7: ADC-L1-19-P1-8 (antibody, human IgG1, kappa, V domains shown)
VH: B5 VH
VL: B5 VL
modifications: drug-linker L1-19-P1 on cysteine thiols after TCEP reduction; positions not given; DAR 7.7 for the whole conjugate
notes: Antibody-drug conjugate
B8: ROR1-Ab-1 (antibody, human IgG1, kappa, V domains shown)
VH: B5 VH
VL: B5 VL
notes: also called anti-human ROR1 monoclonal antibody ROR1-Ab-1
B9: ADC-L1-19-9 (antibody, human IgG1, kappa, V domains shown)
VH: EVQLLESGGGLVQPGGSLRLSCAASGFTFSNYAMSWVRQAPGKGLEWVSSISHNSGSTYYADSVKGRFTISRDNSKNTLYLQMNSLRAEDTAVYYCAKFISARKSLGRSYSNGMDVWGQGTLVTVSS
VL: QSVLTQPPSASGTPGQRVTISCTGSSSNIGSNDVTWYQQLPGTAPKLLIYADSKRPSGVPDRFSGSKSGTSASLAISGLRSEDEADYYCGTWDYSLSGYVFGGGTKLTVLR
modifications: drug-linker L1-19 on cysteine thiols after TCEP reduction; positions not given; DAR 7.3 for the whole conjugate
notes: Antibody-drug conjugate
B10: ADC-L1-19-P1-9 (antibody, human IgG1, kappa, V domains shown)
VH: B9 VH
VL: B9 VL
modifications: drug-linker L1-19-P1 on cysteine thiols after TCEP reduction; positions not given; DAR 7.7 for the whole conjugate
notes: Antibody-drug conjugate
B11: ADC-L1-0-9 (antibody, human IgG1, kappa, V domains shown)
VH: B9 VH
VL: B9 VL
modifications: drug-linker L1-0 on cysteine thiols after TCEP reduction; positions not given; DAR 5.5 for the whole conjugate
B12: ROR1-Ab-2 (antibody, human IgG1, kappa, V domains shown)
VH: B9 VH
VL: B9 VL
notes: also called anti-human ROR1 monoclonal antibody ROR1-Ab-2

The text below walks through data of US20250304717A1, “CAMPTOTHECIN DERIVATIVE AND LIGAND-DRUG CONJUGATE” (HAINAN SIMCERE ZAIMING PHARMACEUTICAL CO., LTD., priority 2022, published 2025).

As usually defined, the EC50 is the concentration at which the effect is half-maximal. Higher therefore signals a need for much substance.

In the assay the target is human ROR1 on stably transfected cell strain MCF7-hROR1 clone 2G2 (human, UniProt Q01973 30-406). The assay is described as follows: flow cytometry (FACS) on MCF7-hROR1 clone 2G2 cells, 5-fold dilutions from 100 nM, Alexa Fluor 647 anti-human IgG secondary antibody, four-parameter fit. The procedure:
Stably transfected cell strain MCF7-hROR1 clone 2G2 constructed in the steps described above was expanded to a logarithmic growth phase in a T-75 cell culture flask, and the medium supernatant was discarded after centrifugation. The cell pellet was washed twice with PBS. […] After the mixture was washed twice with PBS, a secondary antibody was added: Alexa Fluor® 647 AffiniPure Goat Anti-Human IgG (H+L) (purchased from Jackson Immuno, Cat. No: 109-605-088), and the mixture was incubated at 4° C. for 1 h. After the mixture was washed twice with PBS, the cells were resuspended, and detected and analyzed by FACS (FACS Canto™, purchased from BD Biosciences). Data were analyzed by four-parameter curve fitting using Graphpad Prism software to give EC₅₀ values.
A general note: A flow cytometer gives signals particle by particle.
For the molecule B1, it took 0.98 nM to reach a half-maximal effect (EC50).

Take B2: the concentration for a half-maximal effect (EC50) was 1.25 nM.

The molecule B3 displayed a concentration for a half-maximal effect (EC50) of 0.91 nM.

For the molecule B4, the 50% effective concentration (EC50) came to 0.57 nM.

On to B5, for which the EC50 was 0.68 nM.

In the case of B6, the EC50 came to 0.75 nM.

For the molecule B7, the concentration for a half-maximal effect (EC50) is 0.34 nM.

For the molecule B8, a half-maximal effect (EC50) was put at 0.99 nM.

B9 registered an EC50 of 0.42 nM.

B10: the EC50 turned out to be 0.5 nM.

As for B11, the EC50 worked out at 0.43 nM.

On to B12, for which it took 0.98 nM to reach a half-maximal effect (EC50).
